What was measured:
[1] = target: T1, glycyl-tRNA synthetase (GRS), recombinant (UniProt P41250 55-739, limits assumed); assay: Luminex multiplex bead assay, antigen coupled to beads, anti-HA-biotin and SA-PE detection
T1 sequence (looked up): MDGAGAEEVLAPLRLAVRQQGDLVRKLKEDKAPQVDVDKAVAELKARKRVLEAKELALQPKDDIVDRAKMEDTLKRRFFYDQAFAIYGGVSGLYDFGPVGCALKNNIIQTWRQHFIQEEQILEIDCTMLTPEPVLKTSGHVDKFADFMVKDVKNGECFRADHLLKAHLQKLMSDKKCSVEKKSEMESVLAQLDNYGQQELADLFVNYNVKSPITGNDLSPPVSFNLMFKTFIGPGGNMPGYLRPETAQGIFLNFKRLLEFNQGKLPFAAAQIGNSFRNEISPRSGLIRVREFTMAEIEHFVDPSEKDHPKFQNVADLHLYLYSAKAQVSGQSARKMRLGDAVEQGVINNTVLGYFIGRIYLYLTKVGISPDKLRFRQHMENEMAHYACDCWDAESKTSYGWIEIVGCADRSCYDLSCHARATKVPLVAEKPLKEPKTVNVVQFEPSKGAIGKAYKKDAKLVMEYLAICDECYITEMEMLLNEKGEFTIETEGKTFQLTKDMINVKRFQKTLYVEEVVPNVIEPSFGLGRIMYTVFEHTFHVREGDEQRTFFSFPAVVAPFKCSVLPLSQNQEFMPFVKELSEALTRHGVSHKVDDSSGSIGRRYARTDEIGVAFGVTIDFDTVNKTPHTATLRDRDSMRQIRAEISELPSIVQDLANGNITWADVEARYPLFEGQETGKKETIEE
Method: (§1) Then, 50 mg/ml S—NHS (N-hydroxysulfosuccinimide) and 50 mg/ml EDAC (1-ethy-3-[3-dimethylaminopropyl]carbodiimide) were added, followed by activation at room temperature for 20 minutes. The activated beads were washed with PBS, and then 10 μg of respective recombinant ARS antigens, that is, WRS, HRS, NRS, KRS, SRS, YRS, GRS, and AIMP1(p43), which were purified at purity of 90% or higher, were added, followed by reaction at room temperature for 2 hours. The beads linked to the respective ARS antigens were washed. two times with PBS, and then a blocking buffer was added to perform a reaction at room temperature for 30 minutes, thereby blocking unbound residues. Then, the resultant beads were washed two times with PBS, and again dispersed in 100 μl of PBS, and kept in tubes in which the light was blocked. The number of beads bound was measured and recorded by hemocytometer.
(§2) The antibody of the present invention extracted from the periplasm was first diluted with a specimen diluent (PBST+2% BSA) to 1:400. Then, the diluted antibody was diluted 2-fold serially with a specimen diluent, and dispensed in 96 well filter plate at 50 μl for each well. Only the specimen diluent was added in the blank well without the antibody. The ARS-bound beads were put in bead mix tubes to 2000 beads per well, respectively, and the specimen diluent was put with a volume such that 50 μl of the specimen diluent could be put per well. The bead mix solution was well mixed and dispensed in each well, followed by reaction in dark room for 1 hour. After the reaction was ended, the resultant solution was washed three times with PBS (200 μl/well) using a vacuum manifold, 50 μl Anti-(HA)-biotin secondary antibody was added, followed by further reaction in dark room for 1 hour. The beads binding to the secondary antibody were washed three times with PBS, and then, for fluorescent labeling, SA-PE (Streptavidin-Phycoerythrin) was added to 2 μg/ml, followed by reaction in dark room for 30 minutes, washing three times with PBS, and again dispersion in 100 μl of PBS. The fluorescent intensity of the fluorescence-labeled beads was measured using Bio-Plex (Luminex) 200 equipment and Bio-Plex manager program, and the measurement values were analyzed to investigate the binding of the antibody to each ARS.

[2] = target: T2, histidyl-tRNA synthetase (HRS), recombinant (UniProt P12081 1-509, limits assumed); assay: as above
T2 sequence (looked up): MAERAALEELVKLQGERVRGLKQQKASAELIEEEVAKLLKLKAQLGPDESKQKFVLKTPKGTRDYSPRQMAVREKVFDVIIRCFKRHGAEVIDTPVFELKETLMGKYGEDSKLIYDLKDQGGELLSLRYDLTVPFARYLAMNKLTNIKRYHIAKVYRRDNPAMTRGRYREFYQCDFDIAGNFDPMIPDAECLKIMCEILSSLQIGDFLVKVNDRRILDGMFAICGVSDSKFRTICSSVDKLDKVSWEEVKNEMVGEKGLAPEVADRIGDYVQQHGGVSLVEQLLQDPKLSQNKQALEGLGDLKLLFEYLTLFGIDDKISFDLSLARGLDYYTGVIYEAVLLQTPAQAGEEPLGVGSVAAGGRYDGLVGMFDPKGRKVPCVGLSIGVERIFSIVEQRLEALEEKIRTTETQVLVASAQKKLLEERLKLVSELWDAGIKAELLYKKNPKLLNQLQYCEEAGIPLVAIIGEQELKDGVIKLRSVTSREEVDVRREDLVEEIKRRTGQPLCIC
Method: as §1, §2

[3] = target: seryl-tRNA synthetase (SRS), recombinant (UniProt P49591 1-514, limits assumed); assay: as above
Method: as §1, §2

[4] = target: T3, aminoacyl-tRNA-synthetase-interacting multifunctional protein 1 (AIMP1), recombinant (UniProt Q12904 1-312, limits assumed); assay: as above
T3 construct: also called AIMP1(p43); p43
T3 sequence (looked up): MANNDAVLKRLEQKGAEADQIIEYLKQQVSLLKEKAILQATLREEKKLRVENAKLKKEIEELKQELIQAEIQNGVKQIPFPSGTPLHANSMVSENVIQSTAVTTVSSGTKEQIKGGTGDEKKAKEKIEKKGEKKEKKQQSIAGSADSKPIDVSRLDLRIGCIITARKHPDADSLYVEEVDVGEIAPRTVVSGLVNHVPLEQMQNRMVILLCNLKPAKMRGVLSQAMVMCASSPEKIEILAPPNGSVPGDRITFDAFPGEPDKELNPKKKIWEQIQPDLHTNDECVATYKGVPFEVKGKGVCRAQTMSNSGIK
Method: as §1, §2

[5] = target: T4, tyrosyl-tRNA synthetase (YRS), recombinant (UniProt P54577 1-528, limits assumed); assay: as above
T4 sequence (looked up): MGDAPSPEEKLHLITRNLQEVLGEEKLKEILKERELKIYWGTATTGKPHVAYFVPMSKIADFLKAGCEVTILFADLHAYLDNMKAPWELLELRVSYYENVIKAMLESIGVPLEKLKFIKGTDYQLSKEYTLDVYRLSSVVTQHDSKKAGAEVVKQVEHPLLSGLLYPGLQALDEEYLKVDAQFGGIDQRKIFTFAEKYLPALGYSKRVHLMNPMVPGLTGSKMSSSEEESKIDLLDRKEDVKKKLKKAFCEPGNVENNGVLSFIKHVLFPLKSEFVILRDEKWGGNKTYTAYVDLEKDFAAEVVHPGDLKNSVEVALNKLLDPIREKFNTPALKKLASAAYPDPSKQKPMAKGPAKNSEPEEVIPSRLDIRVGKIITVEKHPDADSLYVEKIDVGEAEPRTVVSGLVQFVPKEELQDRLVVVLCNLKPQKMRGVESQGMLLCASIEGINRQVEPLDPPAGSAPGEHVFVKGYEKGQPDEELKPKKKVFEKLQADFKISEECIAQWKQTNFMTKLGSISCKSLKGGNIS
Method: as §1, §2

[6] = target: T5, asparaginyl-tRNA synthetase (NRS), recombinant (UniProt O43776 1-548, limits assumed); assay: as above
T5 sequence (looked up): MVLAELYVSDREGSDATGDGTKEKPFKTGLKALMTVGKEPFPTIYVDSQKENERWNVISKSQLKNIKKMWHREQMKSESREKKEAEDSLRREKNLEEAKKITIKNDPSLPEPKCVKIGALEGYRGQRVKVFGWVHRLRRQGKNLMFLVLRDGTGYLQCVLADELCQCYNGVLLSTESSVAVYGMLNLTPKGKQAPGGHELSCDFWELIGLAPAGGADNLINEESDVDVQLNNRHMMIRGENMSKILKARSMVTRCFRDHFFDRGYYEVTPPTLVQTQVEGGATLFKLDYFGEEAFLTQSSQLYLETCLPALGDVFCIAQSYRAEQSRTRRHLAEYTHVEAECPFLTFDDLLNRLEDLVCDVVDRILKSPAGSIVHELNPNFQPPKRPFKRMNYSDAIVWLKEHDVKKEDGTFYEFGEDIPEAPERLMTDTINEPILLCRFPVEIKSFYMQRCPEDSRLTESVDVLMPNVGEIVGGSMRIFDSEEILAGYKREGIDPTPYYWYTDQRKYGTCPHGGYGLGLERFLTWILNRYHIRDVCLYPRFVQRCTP
Method: as §1, §2

[7] = target: T6, tryptophanyl-tRNA synthetase (WRS), recombinant (UniProt P23381 1-471, limits assumed); assay: as above
T6 sequence (looked up): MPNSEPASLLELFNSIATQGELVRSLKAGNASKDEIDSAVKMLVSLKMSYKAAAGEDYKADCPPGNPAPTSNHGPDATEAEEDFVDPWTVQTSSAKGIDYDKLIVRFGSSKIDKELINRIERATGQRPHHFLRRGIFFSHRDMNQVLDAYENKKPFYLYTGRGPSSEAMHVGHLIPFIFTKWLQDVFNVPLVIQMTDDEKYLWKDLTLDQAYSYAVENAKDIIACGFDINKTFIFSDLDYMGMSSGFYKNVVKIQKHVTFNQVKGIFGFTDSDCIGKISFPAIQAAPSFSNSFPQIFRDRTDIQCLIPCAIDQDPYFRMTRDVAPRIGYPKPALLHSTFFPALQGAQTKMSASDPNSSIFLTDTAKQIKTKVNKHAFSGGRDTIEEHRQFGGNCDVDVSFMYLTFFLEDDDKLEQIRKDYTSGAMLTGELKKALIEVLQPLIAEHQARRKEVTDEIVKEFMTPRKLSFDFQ
Method: as §1, §2

[8] = target: T7, lysyl-tRNA synthetase (KRS), recombinant (human, UniProt Q15046 1-597, limits assumed); assay: SPR (ProteOn XPR36), KRS amine-coupled to GLC chip, purified scFv injected at 500-30 nM, 25 C
T7 construct: the construct is not described; also called KRS antigen; recombinant KRS standard material
Method: The binding affinity of the antibody of the present invention to KRS antigen was measured using the ProteOnTMXPR36 SPR (surface plasmon resonance) biosensor (Bio-Rad).
Specifically, approximately 10 μg/ml KRS antigen was immobilized at about 2,000-4,000 response units to GLC chip (Bio-Rad 6×6 sensor chip, Compact capacity amine coupling for protein-protein interactions) according to the manufacturer's manual, and then 30 μl of the purified scFv antibody of the present invention, which was diluted with PBS to various concentrations (500-30 nM), was injected to the chip at a rate of 50 μl/min at 25° C. to quantify the interaction with the antigen. The surface of the chip was regenerated with 0.85% phosphoric acid. The association rate and dissociation rate were calculated using the ProteOn Manager software, and the equilibrium dissociation constant (KD) was calculated as a ratio of dissociation rate/association rate.

T7 sequence (Q15046 whole entry): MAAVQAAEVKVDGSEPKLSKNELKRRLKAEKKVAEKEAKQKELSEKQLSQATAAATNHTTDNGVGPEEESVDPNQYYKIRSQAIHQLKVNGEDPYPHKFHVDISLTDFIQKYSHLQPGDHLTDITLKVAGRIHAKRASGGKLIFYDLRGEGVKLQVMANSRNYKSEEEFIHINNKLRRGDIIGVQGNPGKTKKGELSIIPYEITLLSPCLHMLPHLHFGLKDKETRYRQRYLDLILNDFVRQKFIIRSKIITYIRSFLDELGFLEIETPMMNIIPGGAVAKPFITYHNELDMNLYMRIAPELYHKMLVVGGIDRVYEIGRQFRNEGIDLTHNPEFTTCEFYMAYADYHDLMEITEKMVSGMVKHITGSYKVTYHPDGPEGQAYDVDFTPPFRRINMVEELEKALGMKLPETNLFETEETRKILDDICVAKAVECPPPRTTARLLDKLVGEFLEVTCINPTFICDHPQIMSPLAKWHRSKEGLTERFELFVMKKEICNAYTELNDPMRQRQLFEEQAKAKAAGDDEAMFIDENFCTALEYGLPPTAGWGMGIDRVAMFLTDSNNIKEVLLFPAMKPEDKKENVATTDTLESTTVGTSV
Chain of seryl-tRNA synthetase (SRS), recombinant (P49591 whole entry): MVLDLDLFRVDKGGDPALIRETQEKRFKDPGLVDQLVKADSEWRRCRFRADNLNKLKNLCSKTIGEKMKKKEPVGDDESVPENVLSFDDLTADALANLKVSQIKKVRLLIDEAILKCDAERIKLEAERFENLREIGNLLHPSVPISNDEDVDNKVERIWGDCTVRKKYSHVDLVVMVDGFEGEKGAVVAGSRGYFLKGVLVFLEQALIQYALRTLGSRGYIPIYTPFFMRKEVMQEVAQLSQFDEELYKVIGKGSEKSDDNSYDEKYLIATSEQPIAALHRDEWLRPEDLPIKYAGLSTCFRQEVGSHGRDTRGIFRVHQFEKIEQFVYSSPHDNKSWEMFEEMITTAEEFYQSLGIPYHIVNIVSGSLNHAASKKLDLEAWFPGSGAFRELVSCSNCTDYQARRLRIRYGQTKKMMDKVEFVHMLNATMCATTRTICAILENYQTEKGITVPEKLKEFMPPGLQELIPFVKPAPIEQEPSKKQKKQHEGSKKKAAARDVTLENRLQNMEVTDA

B1: anti-KRS scFv Biocon-K1 (scFv)
scFv: EVQLLESGGGLVQPGGSLRLSCAASGFTFSNYAMSWVRQAPGKGLEWVSGISPSSGDTYYADSVKGRFTISRDNSKNTLYLQMNSLRAEDTAVYYCAKGVWWYHPLLFDYWGQGTLVTVSSGGGGSGGGGSGGGGSQSVLTQPPSASGTPGQRVTISCSGSSSNIGNNTVSWYQQLPGTAPKLLIYANSKRPSGVPDRFSGSKSGTSASLAISGLRSEDEADYYCGAWDSSLSGYVFGGGTKLTVL
notes: Single clone from a human VH3-23/VL1g phage scFv library, expressed in the E. coli periplasm; Purified scFv was used in SPR and ELISA, periplasmic extract in western blot and Luminex assay; also called antibody of the present invention; anti-KRS scFv antibody; not shown: His and HA tags of the pComb3X vector are implied by Ni-NTA purification and anti-HA detection
- binding result [1]: no binding
- binding result [2]: no binding
- binding result [3]: no binding
- binding result [4]: no binding
- binding result [5]: no binding
- binding result [6]: no binding
- binding result [7]: no binding
- Kd [8]: 100 nM

Source: patent US20160377619A1 (MEDICINAL BIOCONVERGENCE RESEARCH CENTER, published 2016)
